Test results as given in article PMC11180174 (2024).

Target: SARS-CoV-2 (Wuhan-Hu-1 strain) wild-type spike RBD with C-terminal 8xHis (SARS-CoV-2, UniProt P0DTC2 319-541)
Experiment: BLI

Row | Binder | Kd
1 | LY-CoV1404 (antibody, V domains shown) VH: QITLKESGPTLVKPTQTLTLTCTFSGFSLSISGVGVGWLRQPPGKALEWLALIYWDDDKRYSPSLKSRLTISKDTSKNQVVLKMTNIDPVDTATYYCAHHSISTIFDHWGQGTLVTVSS VL: QSALTQPASVSGSPGQSITISCTATSSDVGDYNYVSWYQQHPGKAPKLMIFEVSDRPSGISNRFSGSKSGNTASLTISGLQAEDEADYYCSSYTTSSAVFGGGTKLTVL | < 0.01 nM
2 | 7F3 (antibody, V domains shown) VH: EVQLVESGGGLVKPGRSLRLSCTASGFTFGDYAMSWFRQAPGKGLEWVGFIRSKAYGGTTEYAASVKGRFTISRDDSKSIAYLQMNSLKTEDTAVYYCTRDRYARYDILTGLSPAGADYFYYAMDVWGQGTTVTVSS VL: EIVLTQSPATLSLSPGERATLSCRASQSVSSYLAWYQQKPGQAPRLLIYDASNRATGIPARFSGSGSGTDFTLTISSLEPEDFAVYYCQQRSNWPQYTFGQGTKLEIK | < 0.01 nM
